Results from patent publication US20190065668.

Biological target: fluorogenic KAHRP PEXEL peptide DABCYL-…-E-EDANS

B1: recombinant P. falciparum plasmepsin V (residues N80-R528) (protein)
chain: NASSDLYKYKLYGDIDEYAYYFLDIDIGKPSQRISLILDTGSSSLSFPCNGCKDCGIHMEKPYNLNYSKTSSILYCNKSNCPYGLKCVGNKCEYLQSYCEGSQIYGFYFSDIVTLPSYNNKNKISFEKLMGCHMHEESLFLHQQATGVLGFSLTKPNGVPTFVDLLFKHTPSLKPIYSICVSEHGGELIIGGYEPDYFLSNQKEKQKMDKSDNNSSNKGNVSIKLKNNDKNDDEENNSKDVIVSNNVEDIVWQAITRKYYYYIKIYGLDLYGTNIMDKKELDMLVDSGSTFTHIPENIYNQINYYLDILCIHDMTNIYEINKRLKLTNESLNKPLVYFEDFKTALKNIIQNENLCIKIVDGVQCWKSLENLPNLYITLSNNYKMIWKPSSYLYKKESFWCKGLEKQVNNKPILGLTFFKNKQVIFDLQQNQIAFIESKCPSNLTSSRPR
Km: 20.2 µM and 6.0 µM for the P. falciparum and P. vivax enzymes, respectively | cleavage of the fluorogenic peptide: demonstrated specific activity against the PEXEL substrates and cleaved the peptides after the P1 Leucine residue as expected

B2: recombinant P. vivax plasmepsin V (residues R35-R476), N-terminal fusion tag removed with TEV protease (protein)
chain: GTRSESTEGHSKDLLYKYKLYGDIDEYAYYFLDIDIGTPEQRISLILDTGSSSLSFPCAGCKNCGVHMENPFNLNNSKTSSILYCENEECPFKLNCVKGKCEYMQSYCEGSQISGFYFSDVVSVVSYNNERVTFRKLMGCHMHEESLFLYQQATGVLGMSLSKPQGIPTFVNLLFDNAPQLKQVFTICISENGGELIAGGYDPAYIVRRGGSKSVSGQGSGPVSESLSESGEDPQVALREAEKVVWENVTRKYYYYIKVRGLDMFGTNMMSSSKGLEMLVDSGSTFTHIPEDLYNKLNYFFDILCIQDMNNAYDVNKRLKMTNESFNNPLVQFDDFRKSLKSIIAKENMCVKIVDGVQCWKYLEGLPDLFVTLSNNYKMKWQPHSYLYKKESFWCKGIEKQVNNKPILGLTFFKNRQVIFDIQKNRIGFVDANCPSHPTHTRPR
Km: 20.2 µM and 6.0 µM for the P. falciparum and P. vivax enzymes, respectively | cleavage of the fluorogenic peptide: demonstrated specific activity against the PEXEL substrates and cleaved the peptides after the P1 Leucine residue as expected
